# Reference: publication PMC10914628 (Nature Chemistry, 2024)
# Biological target: the molecule itself
# Test: SEC; apo state; Superdex 200 in crosslinking buffer (20 mM HEPES pH 7.2, 250 mM KCl, 5 mM EDTA), before and after cross-linking
protein,measurement,value
"p97-ND1L-ΔCys-F360C-A413C (domain or fragment, C360 and C413 joined between subunits by bismaleimidoethane (BMOE) in the cross-linked sample, human p97 (VCP), UniProt P55072, residues 1-480; ΔCys: C69V-C77V-C105A-C174A-C184W-C209V-C415A, plus F360C and A413C; also called cysteine-free p97 variant with F360C and A413C; source: E. coli BL21(DE3), purified (Ni-NTA, TEV cleavage, SEC on Superdex 200; apyrase digestion); reduced with DTT and gel-filtered before cross-linking; not shown: His6, N-terminal, cleaved) not shown",stoichiometry N,6
